# Laboratory results published in the supplement of paper PMC11780869.
# System: Bacillus subtilis
# Experiment: cleaved RNA product abundance (RNA/gDNA barcode ratio) relative to median wild-type variant (ratio to wild type); higher = more accumulation of the downstream cleavage product
# Details: experiment (reporter, strain, medium): exp 2b: truncated aprE reporter, strain BJT200; cleavage site: cggR-gapA (positions -7 to +36 mutated)
# Summary of the method: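 Sequencing of barcodes from gel-selected, reverse-transcribed cleaved RNA and from genomic DNA, with UMI collapsing, yielded a per-construct RNA:gDNA ratio. Scaled to the median construct with the unmutated site, this ratio is the cleaved product abundance. The barcoded reporters (truncated aprE or tetM mRNAs with mutagenized RNase Y cleavage-site windows) were integrated into the B. subtilis chromosome, and cultures grew in LB at 37°C from OD600 0.0003 to 0.3.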
row,Sequence,cleaved RNA product abundance
1,ACAGACGAAGGAGCCGCAAAGAAGTTATTAAGAGATGACTAATCCCTCAATATAAATATCTCTCACTTATTTAAA,0.082
2,ACAGACGAAGGAGCCGCAAAGAAGTTATTAAGGGATGAACAATCCCTAAATATAAATATCTCTCACTTATTTAAA,0.33
3,ACAGACGAAGGAGCCGCAAAGGAGCTATTAAGGGATGAATAATCCCTCAATATAAATATCTCTCACTTATTTAAA,0.502
4,ACAGACGAAGGAGCCGCAAAGAAGTTATTAAGGGATGAATAATCCAACAATATAAATATCTCTCACTTATTTAAA,0.184
5,ACAGACGAAGGAGCCGCAAAGAAGTTATTCAGGGATGAATTATCCCTCAATATAAATATCTCTCACTTATTTAAA,0.56
6,ACAGACGAAGGAGCCGCAAAGAAGATACTAAGGGATGAATAATCCCTCAATATAAATATCTCTCACTTATTTAAA,0.0772
7,ACAGACGAAGGAGCCGCAAAGAAGTTATTAAGGGATGAATAATCCTTCAATATAAACATCTCTCACTTATTTAAA,0.415
8,ACAGACGAAGGAGCCGCAAAGAAGTTATTAAGGGATGAATAATCCCTCTATATAATTATCTCTCACTTATTTAAA,0.29
9,ACAGACGAAGGAGCCGCAAAGAAGTTATTAAGGTATGAATAATCCCTCTATATAAATATCTCTCACTTATTTAAA,0.0999
10,ACAGACGAAGGAGCCGCAAAGAAGTTATTAACGGATGAATAATCCCTCAATATAAATCTCTCTCACTTATTTAAA,0.108
11,ACAGACGAAGGAGCCGCAAGGAAGTTATTAAGGGATGAATAATACCTCAATATAAATATCTCTCACTTATTTAAA,0.0986
12,ACAGACGAAGGAGCCGCAAAGGAGTTATTAAGGGATGAATAATTCCTCAATATAAATATCTCTCACTTATTTAAA,0.328
13,ACAGACGAAGGAGCCGCAAGGAAGTAATTAAGGGATGAATAATCCATCAATATAAATATCTCTCACTTATTTAAA,0.122
14,ACAGACGAAGGAGCCGCAAAGAAGGTATTAAGGGATGAAAAATCCCTCAATATAAATATCTCTCACTTATTTAAA,1.25
15,ACAGACGAAGGAGCCGCAAAGAAGTTATTAAGGGATGAATAATCCTTCCATATAAATATCTCTCACTTATTTAAA,0.19
16,ACAGACGAAGGAGCCGCAAAGAAGTTATTAAGGGAAGAATATTCCCTCAATATAAATATCTCTCACTTATTTAAA,0.797
17,ACAGACGAAGGAGCCGCAAAGAAGTTATTAAGGGCAGAATAATCCCTCAATATAAATATCTCTCACTTATTTAAA,0.174
18,ACAGACGAAGGAGCCGCAAAGAAGTTATTAGGGGATGGATAATCCCTCAATATAAATATCTCTCACTTATTTAAA,0.481

# Same assay, conditions: experiment (reporter, strain, medium): exp 4a: truncated aprE reporter, strain BJT201 with 2% xylose (RNase J1 expressed); cleavage site: cggR-gapA (positions -7 to +36 mutated)
row,Sequence,cleaved RNA product abundance
1,ACAGACGAAGGAGCCGCAAAGTAGTTATTAAGGAATGAATAATCCCTCAATATAAATATCTCTCACTTATTTAAA,0.148
2,ACAGACGAAGGAGCCGCTAAAAAGTTATTAAGGGATGAATAATCCCTCAATATAAATATCTCTCACTTATTTAAA,1.1
3,ACAGACGAAGGAGCCGCAAAGAAGTTATTAAGAGATGACTAATCCCTCAATATAAATATCTCTCACTTATTTAAA,0.0924
4,ACAGACGAAGGAGCCGCAAAGAAGTTATTAAGGGATGAACAATCCCTAAATATAAATATCTCTCACTTATTTAAA,0.62
5,ACAGACGAAGGAGCCGCAAAGAAGTTATTAAGGGATGTATAATCCCTCAATATAAAAATCTCTCACTTATTTAAA,0.439
6,ACAGACGAAGGAGCCGCAAAGAAGTTATTAAGGGATGAATAATCCAACAATATAAATATCTCTCACTTATTTAAA,0.174
7,ACAGACGAAGGAGCCGCAAAGAAGTTATTCAGGGATGAATTATCCCTCAATATAAATATCTCTCACTTATTTAAA,0.629
8,ACAGACGAAGGAGCCGCAAAGAAGTTATTAAGTGATGAATAATCCCCCAATATAAATATCTCTCACTTATTTAAA,0.127
9,ACAGACGAAGGAGCCGCAAAGAAGTTATTAAGGGATGATTTATCCCTCAATATAAATATCTCTCACTTATTTAAA,0.771
10,ACAGACGAAGGAGCCGCAAAGAAGTTATTAAGGGATGAATAATCCTTCAATATAAACATCTCTCACTTATTTAAA,0.33
11,ACAGACGAAGGAGCCGCAAAGAAGTTATTAAGGGATGAATAATCCCTCTATATAATTATCTCTCACTTATTTAAA,0.309
12,ACAGACGAAGGAGCCGCCAAGAAGTTATTAAGGGATGAATAAACCCTCAATATAAATATCTCTCACTTATTTAAA,0.471
13,ACAGACGAAGGAGCCGCAAAGAAGTTATTAAGGAATGAATAATCCCTCAAGATAAATATCTCTCACTTATTTAAA,0.0834
14,ACAGACGAAGGAGCCGCAAAGAAGTTATTAAGGTATGAATAATCCCTCTATATAAATATCTCTCACTTATTTAAA,0.11
15,ACAGACGAAGGAGCCGCAAAGAAGTTATTAAGGGATGAATAGTCCCTCAAAATAAATATCTCTCACTTATTTAAA,0.31
16,ACAGACGAAGGAGCCGCAAAGAAGTTATTAAGGGATTAATAATCCCTCAATTTAAATATCTCTCACTTATTTAAA,0.176
17,ACAGACGAAGGAGCCGCAAGGAAGTTATTAAGGGATGAATAATACCTCAATATAAATATCTCTCACTTATTTAAA,0.197
18,ACAGACGAAGGAGCCGCAAAGTAGTTTTTAAGGGATGAATAATCCCTCAATATAAATATCTCTCACTTATTTAAA,0.37
19,ACAGACGAAGGAGCCGCAAAGAAGATATTAACGGATGAATAATCCCTCAATATAAATATCTCTCACTTATTTAAA,0.207

row,Sequence,cleaved RNA product abundance
1,ACAGACGAAGGAGCCGCAAAGAAGTTATTAAGGGTTGAATAATCCCTCAATATAAATTTCTCTCACTTATTTAAA,0.436
2,ACAGACGAAGGAGCCGCAAAGAAGTTATTAACGGAAGAATAATCCCTCAATATAAATATCTCTCACTTATTTAAA,0.152
3,ACAGACGAAGGAGCCGCAATGAAGTTATTAAGGGATGAATAATCGCTCAATATAAATATCTCTCACTTATTTAAA,0.0881
4,ACAGACGAAGGAGCCGCAAGGAAGTTATTAACGGATGAATAATCCCTCAATATAAATATCTCTCACTTATTTAAA,0.121
5,ACAGACGAAGGAGCCGCAAAGAAGTTATTAAGGGAAGAATATTCCCTCAATATAAATATCTCTCACTTATTTAAA,0.603
6,ACAGACGAAGGAGCCGCAACGAAGTTATAAAGGGATGAATAATCCCTCAATATAAATATCTCTCACTTATTTAAA,0.54
7,ACAGACGAAGGAGCCGCAAAGAAGTTAGAAAGGGATGAATAATCCCTCAATATAAATATCTCTCACTTATTTAAA,0.426
8,ACAGACGAAGGAGCCGCAAAGAAGTTATTAATGAATGAATAAACCCTCAATATAAATATCTCTCACTTATTTAAA,0.133
9,ACAGACGAAGGAGCCGCAAAGAAGTTATTAGGGGATGACTAATCCCTCAATATAAATATCTCTCACTTATTTAAA,0.63
10,ACAGACGAAGGAGCCGCAAAGAAGTTATTAAGGGATGTGTAATCCCTCAATATAAATATCTCTCACTTATTTAAA,0.526
11,ACAGACGAAGGAGCCGCAAACAAGTTATTAAGGGATGAATAATCCCTCAATATAACTATCTCTCACTTATTTAAA,0.0791
12,ACAGACGAAGGAGCCGCAAAGAAGTCATAAAGGGATGAATAATCCCTCAATATAAATATCTCTCACTTATTTAAA,0.198
13,ACAGACGAAGGAGCCGCAAATAAGTTATTAAGGGATAAATAATCCCTCAATATAAATATCTCTCACTTATTTAAA,1.03
14,ACAGACGAAGGAGCCGCAAACAAGTTATTTAGGGATGAATAATCCCTCAATATAAATATCTCTCACTTATTTAAA,0.67
15,ACAGACGAAGGAGCCGCAAAGAAGTGATTAAAGGATGAATAATCCCTCAATATAAATATCTCTCACTTATTTAAA,0.19
16,ACAGACGAAGGAGCCGCAAAGAAGTTATTAGGGGATGGATAATCCCTCAATATAAATATCTCTCACTTATTTAAA,0.709
17,ACAGACGAAGGAGCCGCAAAGAAGTTATTAAGGGACGAATATTCCCTCAATATAAATATCTCTCACTTATTTAAA,0.525
18,ACAGACGAAGGAGCCGCAAAGAAGTTCTTAAGGGATGAATAATCTCTCAATATAAATATCTCTCACTTATTTAAA,0.199

# Same assay, conditions: experiment (reporter, strain, medium): exp 8a: truncated aprE reporter, strain BJT201 with 2% xylose (RNase J1 expressed); cleavage site: glnRA (positions -5 to +31 mutated)
row,Sequence,cleaved RNA product abundance
1,CGACATGTCCCGCTTCTTTCATTAATCCGTTAGCAACTGTTTTGCTGTATACATTTACCTTTTAAGAGGAGGAAT,0.219
2,CGACATGTCCCGCTTCTTTCATTAATCCGTTAACAACTGTTTTGCTGTATACATTTACCTTTTAAGAGGAGGAAT,0.166
3,CGACATGTCCCGCTTCTTTCATTAATCCGATCGCAACTGTTTTGCTAGATACATTTACCTTTTAAGAGGAGGAAT,0.119
4,CGACATGTCCCGCTTCTTTCATTAATCCGTTAGCAACTGTTATGCTATATACATTTACTTTTTAAGAGGAGGAAT,1.33
5,CGACATGTCCCGCTTCTTTCATTAATCCGTTATCAACTGTTTTGCTATAGACATTTACCTTTTAAGAGGAGGAAT,0.206
6,CGACATGTCCCGCTTCTTTCATTAGTCCGTTAGCAACAGTTTTGCTATATACATTTACCTTTTAAGAGGAGGAAT,0.968
7,CGACATGTCCCGCTTCTTTCATTAATCCGTTAGCAACTGTTCTGCAATATACATTTACCTTTTAAGAGGAGGAAT,0.103
8,CGACATGTCCCGCTTCTTTCATTAATCCGTTAGCAACTGTTTTTCTATATAGATTTACCTTTTAAGAGGAGGAAT,0.925
9,CGACATGTCCCGCTTCTTTCATTAATGCGTTAGCAATTGTTTTGCTATATACATTTACCTTTTAAGAGGAGGAAT,0.995
10,CGACATGTCCCGCTTCTTTCATTATTCCGTTAGCAATTGTTATGGTATATACAATTATCTTTTAAGAGGAGGAAT,0.256
11,CGACATGTCCCGCTTCTTTCATTATTCCGTTAGCAACTGTTTTGCTGTATACATTTACCTTTTAAGAGGAGGAAT,0.298
12,CGACATGTCCCGCTTCTTTCATTAATCCGTTAGCAACTTTTTAGCTATATACATTTACCTTTTAAGAGGAGGAAT,0.565
13,CGACATGTCCCGCTTCTTTCATTAATCCGTTATCAACTGTTTTGCTATATACATTGACCTTTTAAGAGGAGGAAT,0.253
14,CGACATGTCCCGCTTCTTTCATTAAACCGTGAACAACTGTGTTGCAATATACATGTACCTTTTAAGAGGAGGAAT,0.222
15,CGACATGTCCCGCTTCTTTCATTAATCCGTTAGCAAGTGTTTTGCTATATACATTTAGCTTTTAAGAGGAGGAAT,1.43
16,CGACATGTCCCGCTTCTTTCATTATTCCTTTACCAACAGTTTTGCTATATACATTTACCTTTTAAGAGGAGGAAT,0.112
17,CGACATGTCCCGCTTCTTTCATTAATCCGTTGGCAATTGTTTTGCTATATACATTTACCTTTTAAGAGGAGGAAT,1.12
18,CGACATGTCCCGCTTCTTTCATTAATCCGTTAGCAACTGTTTCACTATATACATTTACCTTTTAAGAGGAGGAAT,0.694
